The record followed here is publication PMC10184639.

In the assay the target is biotinylated CH848 DS SOSIP Trimer (HIV-1). Description: SPR.

B1: DH270.I5.6 Fab (Fab, V domains shown)
VH: QVQLVQSGAEVKKPGASVKVSCKASGYTFTDYYIHWVRQAPGQGLEWMGWINPNTGRTNSAQKFQGRVTMTRDTSISTAYMELSRLRSDDTAVYYCARGGWIGLYYDSSGYPNFDYWGQGTLVTVSS
VL: QSALTQPASVSGSPGQSITISCTGTSYDVGSYNLVSWYQQHPGKAPKLMIYEVSKRPSGVSNRFSGSKSGNTASLTISGLQAEDEADYYCCSYAGSSTVVFGGGTKLTVL
The molecule B1 showed a fold improvement of the binding affinity relative to the UCA of 8 fold.
